Measured values: the NTF2 design screens of Basanta et al. (2020)

Test: protease stability score; higher = more stable; yeast display proteolysis, trypsin and chymotrypsin;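 note: log10 excess protease needed over predicted unfolded state with 0 meaning unfolded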
In the case of “DEETEDKARRFVEAFHTGDPKNINRLMDKDARMKYGDTTVHGRHQIDKWIKELKDEIRIELDRVEIRADNGRVTAELDMVFDVNGKPVKHTLVFIFQFHNGRMHEVKIRIDEDVLRKLKR”, the protease stability score is reported as 0.746. Sequence “DEENLNRLDEFQQAVQTGDEKEAEELVDPNARVNVGDKQVNGMDKLRRTIHNKRRKMRVEIDHVNFRAKGNHVTARFDFHVNHNGTPRRTQMNVEARFKNGRIKSLRNESVS” has a protease stability score of 0.121. In the case of “EQEVVHLAHRFIEAVQHNSTEDANKNVDPNAKFRVGDHVVNGREEVNEKVRKDHEKIRLQIRSVTLEDQGDKVEIRMDVEFDVNGKPLHHNLKMTVEAHNGKIVQLDNQMDPTELKELKQ”, the protease stability score is reported as -0.152. For “DERLADQVVELLHVMEDGDEKRVDQLIDKDVKFKVGDKDYHGDETARRRAKNLRDQMRIEYDLKDYRTNGDNAILNAEVRMNINGQPYSHHVKIVVRARNGKVKHLQMSFDEETQKKVDQ”, the protease stability score was 0.909. “DEDFWRRLVTLMQKNDFDQLARLVDPNAEVTVGDKTYEGRENIQKMWHKLKKQFDHYEIKTYRVKGDKLDMDYVFVVNGQQVRAKVEMRVHNGRLVELRFDARNPDELDTVRRILS” gave a protease stability score of 1.55. Work on “EEHLQKTVEEMIKLIRHGNEHKVQENIDPNARIVIGEKRIRGRETFAHLLSKRHKEQRYEVREIKLTVQGEKVKVSMDVVADINGKPIRFSIDMFLHASNGKVKDIQYRISEEQRDKQQG” yielded a protease stability score of -0.033. With “DEKKAEELAKKAFKYIENGDREEAQKMLKDNVEYHYANTTYHGKDAAKFVVDVVQKVGVEVKVQEQEVRGNTVRARFQYKNGDTEVETEVEVTYEGDRVKKAEVKLSEEVMKLVHQG” the protease stability score was 0.566. Sequence “DDSANERAKKVMHALKTGDPDTMSELLDPNATVDVGEKQVKGMDNIVDILRKERDQIRYSIDVKRMNAKGDKVVVDATRESHHNGQPRSWHFTIFFNNTNGRVKNLKVEESG” has a protease stability score of 0.626. Sequence “DETAVHAARRYLHAVTEGDPDKVNEQVDPNAKLTYGDKEVHGSSQVKEEVETQNRHSRIQYDSVTFDHQGDKVRADIDMKQDSNGRPKRRKMVVDFRAHNGKLQHVNAQDDN” has a protease stability score of -0.224. With “DEELHEVVERLLQALRNGDPDQFKKNVDPNVKIVVGETQYHGREEAAHQLHQEHNNSSFQYVSVDVQVHGNKVVIDQRRRETQNGQPDSENFSEEAEAHNGKFKHIRQRSTK” the protease stability score was -0.235. “DEHVLELAKELFDALSFGSPEDVHRNADKNARFRIGDTEIKGMEQYVETVHKIKRELRLSITVKSMTAHNGDADIKADAVFNHNGTPRRVKIEVTMHVHNGKAVSVDIQFRK” showed a protease stability score of 0.848. “DEEQNKLADTAMEAWNHGDPDQMVKMLDPNARVRYGDKQFHGRTDVKKWMKRLNDQARMSVTHYKIRVKGEKALLTARLEFEINGQPFRRHVKVVFNNHNGKAKQVDWQFDQDKQRKIES” gave a protease stability score of 0.152. “DERAREIVTRYFTALERGDPDKARKLADKDVRISVGDTQINGHDQMARTIDKQKKHMRIRFEDVKIHVNNGRADVKFHAVFEHNGKPERKNRTIIFNVHDGRIKEIQAQDDE” gave a protease stability score of 0.321. Work on “DTEVIHVLKRIMHAINEGDESQVRKNADPNVKVRVGNKSIHGREQLVEQMRRDVEEIRLEYKSFDAKDSDGHARARVKYQNEFNGKPQEKDDRATAVAHNGHLKSIRWRVPEDDLRDQDT” yielded a protease stability score of -0.014. “DHEAKEIAEKIQRALTSNDPDHLNRQLDPNVRLQIGDKEVEGRQEAHNWLQKVVDEQEISINISDINVNGNHIRIHAVVENQVNGRPFHYEVVIIIIIHNGRVRSQRYQLDEDQDRRIKQ” gave a protease stability score of 0.047. With “DEDEKMKRAMKKLNEVQNTGNEKTLANLMDPNARMDIGDKRYHGREQVTTAVKDIQRRVDHVEWRLTDLKQDGDKLDAKADVIFRTNGTQTNRHADMKLRDVNGQLVIVEYVIS” the protease stability score was -0.093. Sequence “DSHAENLLQQVLKALETGDQKRVMELFDPNAKVRYGDKTLHGREEIRKYVKKLKDEMQIRIEVRSVTVQGNKITADVVVRADVDGKPVEMRVRIHVEFENGKIHSLSVDMDPEQVKELEK” has a protease stability score of 1.56. In the case of “DEHNVELARKLRSAVEKNSEKEAKNNIDKDVRAQYGDQEINGREHFAEWVQRLTHHIQWEIKSVTVRVTNGRVDVKMHVREEQNGKPREMDVKMTVVFDNGRIENVQVKKHG”, the protease stability score is reported as 0.448. For “DEEKVKVARKFMEVVKENNEEDAHRLASENVDVVVGDKRLHGRSNLMRKLRKEREEWRFRISIKDIKVENGRVHIHFKVQRVVNGQPQTYEQRMVMVFHNGRVKSVHYRIPEEQLNRIES”, the protease stability score was 0.463. “DENAERVLREIVKALEQGDPDRWKQNVDPNVKFRVGDKDVHGREEIVKTLSSLHDQIRFHVKFEHMDNQGDKIRADARVHQNVDGRPLSSSVVVRLTVHNGRVQEMRMNMDEHYVRDEQK” showed a protease stability score of 0.068. For “DDHAMRKFHELLKAIETGDEKKITDLADKHARFEYGDTEVHGRHKYAKEATDRRREMRIEIKDMKTRVDENHVQINNNYQVQVNGEPHTYTVQVVVRMDNGRLKQVQIRVSEEIRDRNKT”, the protease stability score was -0.166. “DETDKAQKQFEHYERIAHTGDPDEMQRQADENARVEYGDKEVRGRKDVKKWAKDIKDTVDSVEFDIKSFEVQGDKITINVNIVYRSDGRQQSMEVNMVFDVRGDDIQIRSMKFR” showed a protease stability score of 0.434. With “DEEEDQRVAVDALKVIWRGDSDEAQKLFDPNARFRVGDTVYHGRENVKTALRRFRERADHIRVDHIETQGEHAVAKATVHSNGRTRRLRVHATVHNGRAKEAEVRDS” the protease stability score was 0.012. With “ERDSLKHVAREMEKNNFDEMLHNADKDVEIHYGNRSVHGHKRAQSFWERLKSRVDHISFKSYSINNGRIVMSFKVVIDGQDIEVHISIEVENGTIKHVQFQATSEEIEKLLEKLMD” the protease stability score was 1.36. In the case of “DEEKVQDHNRKLWKLMKTGDSDQLRREMPPTAHAHVGDKSWHGSEAQNAMQEQARMQVDHLEVKKVDVTGDKIHQNVVRKENGRTENRVFAFQVDNGEIKQVEIRRS”, the protease stability score is reported as -0.146. For “DEERRKNLAREYNKALTSGDENKVRRLADENVRIEIGDHVVSGRENLSKLVRDDQERVDRFRVQDVHVEGDKIQFDIQVEINGKTINITIEMQLHNGRIKKIKFDPRAVEQLKG”, the protease stability score was 0.612. With “DEENSEAMKRWFNAMETGDPDKVKEQLDENAKIEVGDKRIHGRDQAREEVRKMLERWEIRIKIDEIDVHGEKVVVKFRQHNDRNGEPDNQTVVFIAIFDNGKATRWLLTTDG” the protease stability score was 0.289. In the case of “DEDLQEFAERLLQVNRTGDEDQFRRNVDPNAKMVVGDKEYHGRDELARFFRHLREHARFELNVKSVSVEGDTVEIHFEARVDINGKPLTYEASMSMRVEGDRVKRITFRMDPDQRRKAHS”, the protease stability score is reported as 1.11. Sequence “DEKRLTELLEVMKHGDFDRLANLMDKDVRIEYGDKSVRGREQAQHLMEKQKKRADHVEWKEYHFQGDTVSVRLVVRINGKEVEYHQTYRVNNGKITDMEQRARDEDDERQLRRVEG” has a protease stability score of -0.093. For “DDENRRFAERLMKVWRTNNEEDARTLFDKDVRFEIGDKVLHGKEQYAQSVRDIKKEMRFDARVRSIDVRGEKVVVLYDVEVQHNGRPQTKQVIFIANVHNGRIKEARVEDTQ”, the protease stability score was 0.271. “DHDLQKTWKDQAAEALQTGDPREFEKMVDENVNVIYGDKTYHGRKQASNLAQRLQKQIDHIRLHSVSIRGDEVNVDLTVNVNGTEMRYHMTARVHNGKVKELKFDPDFVRKAQK” gave a protease stability score of 0.174. For “DEKAQDILKEIANAIRTNNPSQLKNLLDPNAKVKIGDKEFHGMDQLQEDVQRKKEKMRVDFDVRRVEVQGETVHARARVVIHHNGKPATMTYSMIVHIKNGRVRELQVNISETDKEKQKS”, the protease stability score was 1.62. Work on “DEEDLRHLIELMEKGDFSRIADQADEDVRVDIGDKRIHGREQVLTYAEKLSKNIDHVKIQHYHVEGNKLVVDMVIVVNGKDVRATLTAEISNGRLKHMELHATNEEQQTRLKEIIS” yielded a protease stability score of 0.871. Work on “DQENLDVLRRLWEALESGNPDKYSQLIDPNAEVVVGDKTYEGKENLKQEIRTERDEMRKEIDWKSMSVHNGQANAEAKIRSNHNGDPREMVVTARARFHNGKLQNYEQHVDK” yielded a protease stability score of -0.325. Work on “EEKLEEQVEELLKNLDTGDENRARQLADPNVRARVGDKEYHGMEQFIKDQMDQRRNARIEVKDLRSEHHGDKITVDLSYKAQHNGRPTTVQREVTFHAHNGKFRQMKIEQSG” yielded a protease stability score of -0.521. Sequence “DEEDHQKIAHSLAEVLKTGDPDRMMELADENVKFQVGDKTYHGREELKKYMEQLHRHADHIEIDHISVQGDKIRIHARMNVNGREHTFVIQVEIHNGRAKSITFQYG” has a protease stability score of 1.53.
